Source: publication PMC7064642

Target: importin-α/β carrier protein complex (α/β importin heterodimer)
Assay: MST; importin β labelled with Cy3; α/β importin heterodimers at equimolar 50 nM; MNT serially diluted from 1 µM (MNT_(N-EGF)) or 4 µM (MNT_(N-affibody), MNT_(C-EGF)); 20 mM HEPES pH 7.4, 110 mM KCl, 5 mM NaHCO3, 5 mM MgCl2, 0.1 mM CaCl2, 1 mM EGTA, 1 mM DTT; Monolith NT.115

6His-DTox-HMP-NLS-EGF modular nanotransporter (MNT_(C-EGF))
Kd: 0.127 µM

EGF-6His-DTox-HMP-NLS modular nanotransporter (MNT_(N-EGF))
Kd: 0.0158 µM
